Assay results from doi:10.1101/2021.12.02.470928, “The PNUTS-PAD domain recruits MYC to the PNUTS:PP1 phosphatase complex via the oncogenic MYC-MB0 region” (bioRxiv, 2021).

Target: T1, PNUTS(1-148), PNUTS amino-terminal domain (PAD) (UniProt Q96QC0 1-148)
T1 construct: PNUTS (PP1 nuclear targeting subunit), residues 1-148, termed PAD; Vector pET28-MHL (RRID:Addgene_26096) with N-terminal His6 tag and TEV site; Used 13C,15N-labelled in some NMR experiments; also called apo PAD; source: E. coli BL21 (DE3), purified (Ni-NTA, gel filtration)
T1 sequence (looked up): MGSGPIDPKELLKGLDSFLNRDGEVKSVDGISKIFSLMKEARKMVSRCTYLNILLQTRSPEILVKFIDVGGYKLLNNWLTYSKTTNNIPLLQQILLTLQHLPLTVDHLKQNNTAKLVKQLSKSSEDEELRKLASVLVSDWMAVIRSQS
Test: BLI; C-terminally biotinylated MYC constructs or N-terminally biotinylated peptides on SA biosensors, dipped into serial dilutions of PAD (WT or mutant); Octet RED384; room temperature; HBS-EP (10 mM HEPES pH 7.4, 150 mM NaCl, 3 mM EDTA, 0.005% P20) with 0.002 mg/ml BSA; Kd from steady-state response curves; apparent
Settings: both partners purified

B1: biotinylated MYC(1-88) with C-terminal AVI tag (domain or fragment, UniProt P01106-2 16-103, looked up)
chain: MPLNVSFTNRNYDLDYDSVQPYFYCDEEENFYQQQQQSELQPPAPSEDIWKKFELLPTPPLSPSRRSGLCSPSYVAVTPFSLRGDNDG
modifications: biotin on the C-terminal AVI tag
notes: MYC, residues 1-88 (contains MB0 and MBI); Purified 'as described above'; also called wild-type MYC(1-88); recombinant biotinylated MYC N-terminal protein; source: E. coli BL21 (DE3)-BirA, biotinylated by co-expressed BirA, purified; not shown: AVI tag, C-terminal, kept
Kd: 3.5 µM
